# Measurements as given in patent US20060240001A1 (AGOURON PHARMACEUTICALS, published 2006).
# Legend:
# [1] = molecular target: T1, human P-cadherin on the surface of cells (human, UniProt P22223 108-829); experiment: epitope competition on A431 cells; competitor: biotinylated 129-1c4 IgG at 1x KD, DELFIA
# T1 construct: whole, on cells; also called native P-cadherin on the surface of A431 cells; SW480 cells stably expressing P-cadherin
# [2] = molecular target: T1, human P-cadherin on the surface of cells; experiment: cell-based or functional assay
# [3] = molecular target: T1, human P-cadherin on the surface of cells; experiment: cell-based or functional assay; remark: listed apart in the source
# [4] = molecular target: T1, human P-cadherin on the surface of cells; experiment: cell-based or functional assay; remark: listed apart in the source
# [5] = molecular target: T1, human P-cadherin on the surface of cells; experiment: cell-based or functional assay; remark: listed apart in the source
# [6] = molecular target: T2, Recombinant human P-cadherin Fc (R&D Systems 861-PC-100) (human, UniProt P22223 108-654); experiment: ELISA; KD on E-cadherin over KD on P-cadherin
# T2 construct: also called recombinant human P-cadherin/Fc fusion protein; hCad/Fc; not shown: Fc part of the bought fusion protein
# [7] = molecular target: T2, Recombinant human P-cadherin Fc (R&D …); experiment: ELISA on coated antigen, relative KD
# [8] = molecular target: T3, recombinant human E-cadherin (R&D Systems 648-EC-100) (human, UniProt P12830 155-707); experiment: ELISA on coated antigen, relative KD
# T3 construct: Bought protein
# T3 sequence (looked up): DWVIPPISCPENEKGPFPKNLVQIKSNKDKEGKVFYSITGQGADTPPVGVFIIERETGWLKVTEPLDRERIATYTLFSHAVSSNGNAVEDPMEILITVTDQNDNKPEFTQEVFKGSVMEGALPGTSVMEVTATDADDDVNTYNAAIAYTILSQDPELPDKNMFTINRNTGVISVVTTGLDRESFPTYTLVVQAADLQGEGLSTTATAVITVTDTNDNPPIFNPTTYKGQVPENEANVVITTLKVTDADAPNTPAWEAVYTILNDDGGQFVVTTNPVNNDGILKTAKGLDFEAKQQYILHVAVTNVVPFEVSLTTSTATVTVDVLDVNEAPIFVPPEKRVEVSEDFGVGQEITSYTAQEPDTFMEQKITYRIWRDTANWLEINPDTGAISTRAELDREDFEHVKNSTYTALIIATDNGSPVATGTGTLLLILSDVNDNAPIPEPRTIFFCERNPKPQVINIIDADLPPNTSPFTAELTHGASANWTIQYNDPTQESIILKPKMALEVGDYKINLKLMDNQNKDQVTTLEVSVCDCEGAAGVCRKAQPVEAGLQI
IC50 [1] [nM],A431 Adhesion Assay Mean IC50 (nM) (n = 2) [2],A431 Adhesion Assay Mean IC50 (nM) (n = 3) [3],further results,Binder
2.49,,,,"scFv variant of 129-1c4 with VH CDR3 SEQ ID NO: 37 and VL CDR3 SEQ ID NO: 40 (scFv, V domains shown, His-tagged purified scFv; also called 37 / 40) VH: not shown VL: QSALTQPASVSGSPGQSITISCTGTSNDVGAYNYVSWYQQHPGKAPKLILSEVNKRPSGVSNRFSGSKSGNTASLSISGLQAEDEADYYCSSFTSGLPWVLFGGGTKLTVL"
,0.97,0.114,,"195-e11 (antibody, V domains shown) VH: not shown VL: QSALTQPASVSGSPGQSITISCTGTSNDVGAYNYVSWYQQHPGKAPKLILSEVNKRPSGVSNRFSGSKSGNTASLSISGLQAEDEADYYCSSFTSGIVFNLFGGGTKLTVL"
,,0.08,"SW480 Aggregation Assay Mean IC50 [4]: 1.5 nM; SW480 Spheroid Disruption Assay, Fold Increased Disruption vs Control at 5 nM [5]: 10 fold; KD(E)/KD(P) [6]: 1.4; Kd [7]: 0.045 nM; Kd [8]: 0.063 nM","196-d10 (antibody, V domains shown, Tested as IgG converted from scFv; also called 196-d10 IgG) VH: not shown VL: QSALTQPASVSGSPGQSITISCTGTSNDVGAYNYVSWYQQHPGKAPKLILSEVNKRPSGVSNRFSGSKSGNTASLSISGLQAEDEADYYCTSYTMGSTFMLFGGGTKLTVL"
,2.1,0.229,,"194-b09 (antibody, V domains shown) VH: not shown VL: QSALTQPASVSGSPGQSITISCTGTSNDVGAYNYVSWYQQHPGKAPKLILSEVNKRPSGVSNRFSGSKSGNTASLSISGLQAEDEADYYCSSFTSGLPWVVFGGGTKLTVL"
,0.39,0.149,,"196-g03 (antibody, V domains shown) VH: not shown VL: QSALTQPASVSGSPGQSITISCTGTSNDVGAYNYVSWYQQHPGKAPKLILSEVNKRPSGVSNRFSGSKSGNTASLSISGLQAEDEADYYCTSYTMGSTFMLFGGGTKLTVL"
,0.63,0.168,,"200-h06 (antibody, V domains shown) VH: not shown VL: QSALTQPASVSGSPGQSITISCTGTSNDVGAYNYVSWYQQHPGKAPKLILSEVNKRPSGVSNRFSGSKSGNTASLSISGLQAEDEADYYCTSYRMDSTFMLFGGGTKLTVL"
,0.73,0.158,,"194-g09 (antibody, V domains shown) VH: not shown VL: QSALTQPASVSGSPGQSITISCTGTSNDVGAYNYVSWYQRHPGKAPKLILSEVNKRPSGVSNRFSGSKSGNTASLSISGLQAEDEAEYYCSSYTMGSTFMLFGGGTKLTVL"
0.8,,,,"scFv variant of 129-1c4 with VH CDR3 SEQ ID NO: 37 and VL CDR3 SEQ ID NO: 295 (scFv, V domains shown, His-tagged purified scFv; also called 37 / 295) VH: not shown VL: QSALTQPASVSGSPGQSITISCTGTSNDVGAYNYVSWYQQHPGKAPKLILSEVNKRPSGVSNRFSGSKSGNTASLSISGLQAEDEADYYCSSFTSGKTFVLFGGGTKLTVL"
1.78,,,,"scFv variant of 129-1c4 with VH CDR3 SEQ ID NO: 37 and VL CDR3 SEQ ID NO: 261 (scFv, V domains shown, His-tagged purified scFv; also called 37 / 261) VH: not shown VL: QSALTQPASVSGSPGQSITISCTGTSNDVGAYNYVSWYQQHPGKAPKLILSEVNKRPSGVSNRFSGSKSGNTASLSISGLQAEDEADYYCSSFTSQIPWALFGGGTKLTVL"
10.5,,,,"scFv variant of 129-1c4 with VH CDR3 SEQ ID NO: 37 and VL CDR3 SEQ ID NO: 287 (scFv, V domains shown, His-tagged purified scFv; also called 37 / 287) VH: not shown VL: QSALTQPASVSGSPGQSITISCTGTSNDVGAYNYVSWYQQHPGKAPKLILSEVNKRPSGVSNRFSGSKSGNTASLSISGLQAEDEADYYCSSFTSGIKFTLFGGGTKLTVL"
,0.46,0.162,SW480 Aggregation Assay Mean IC50 [4]: 0.7 nM,"194-e06 (antibody, V domains shown) VH: not shown VL: QSALTQPASVSGSPGQSITISCTGTSNDVGAYNYVSWYQQHPGKAPKLILSEVNKRPSGVSNRFSGSKSGNTASLSISGLQAEDEADYYCSSFTSGLPWVLFGGGTKLTVL"
1.1,,,,"scFv variant of 129-1c4 with VH CDR3 SEQ ID NO: 37 and VL CDR3 SEQ ID NO: 304 (scFv, V domains shown, His-tagged purified scFv; also called 37 / 304) VH: not shown VL: QSALTQPASVSGSPGQSITISCTGTSNDVGAYNYVSWYQQHPGKAPKLILSEVNKRPSGVSNRFSGSKSGNTASLSISGLQAEDEADYYCSSFTSGPVFNLFGGGTKLTVL"
